Test results taken from US20240374671A1 (ACCELERON PHARMA, published 2024).
Residue numbers refer to the chain shown, from its start. Like-named read-outs stand apart in the source and are kept apart here. Blank lines part the entries; values can stand above or below the binder they belong to.

Tests used:
[1] = target: T1, human ActRIIB ECD (peptide library) (human, UniProt Q13705 25-130); assay: Pepscan peptide library ELISA (linear 15-mers and CLIPS)
T1 construct: also called AcRIIB
T1 sequence: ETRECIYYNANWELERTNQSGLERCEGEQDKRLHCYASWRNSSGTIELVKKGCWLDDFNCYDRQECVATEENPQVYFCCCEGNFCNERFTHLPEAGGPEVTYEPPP
Experimental: Mapping of the ActRIIB and ActRIIA ECD epitopes recognized by the antibodies was performed by Pepscan Presto BV using custom made peptide libraries. Sequences of ECDs of human ActRIIB and ActRIIA were converted into libraries of overlapping linear 15-mers and circularized 15-mer CLIPS using combinatorial matrix design. CLIPS (Chemical Linkage of Peptides onto Scaffolds) technology structurally fixes peptides into defined three-dimensional structures (single, double, triple, etc. loops) creating functional mimics of complex binding sites. Peptides were synthesized on solid support. Binding of antibodies to each of the synthesized peptides was tested by ELISA and binding affinities were quantified. Peptide constructs representing both parts of the discontinuous epitope in the correct conformation bind specific antibody with the highest affinity. […] Each peptide was given a score based on affinity.

monomeric hActRIIB [2] = target: T2, monomeric hActRIIB (human, UniProt Q13705 25-130, limits assumed); assay: SPR (Biacore), 37 C
T2 construct: also called ActRIIB MONOMER; ActRIIB monomer
T2 sequence: T1 sequence

dimeric hActRIIA [3] = target: T3, dimeric hActRIIA (human, UniProt P27037 21-138); assay: SPR (Biacore), 37 C
T3 construct: also called ActRIIA DIMER; ActRIIA dimer
T3 sequence (P27037 21-138): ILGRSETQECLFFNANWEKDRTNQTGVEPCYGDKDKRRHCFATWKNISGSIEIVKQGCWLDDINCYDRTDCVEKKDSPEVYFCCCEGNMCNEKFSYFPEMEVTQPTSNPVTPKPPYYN

monomeric hActRIIA [4] = target: T4, monomeric hActRIIA (human, UniProt P27037 21-138, limits assumed); assay: SPR (Biacore), 37 C
T4 construct: also called ActRIIA MONOMER; ActRIIA monomer
T4 sequence (P27037 21-138 limits assumed): as the sequence (P27037 21-138) above

dimeric hActRIIB [5] = target: T5, dimeric hActRIIB (human, UniProt Q13705 25-130); assay: SPR (Biacore), 37 C
T5 construct: also called ActRIIB DIMER; ActRIIB dimer
T5 sequence: T1 sequence

dimeric hActRIIA [6] = target: T3, dimeric hActRIIA; assay: SPR (Biacore), 37 C; remark: listed apart in the source
Experimental: (§1) Kinetic characterization of G02 antibody binding to monomeric and dimeric hActRIIB and hActRIIA was performed using standard BIACORE®-based analysis at 37° C. FIGS. 8A-8D show kinetic characterization of G02 antibody binding to monomeric and dimeric hActRIIB and hActRIIA (FIG. 8A-8D, respectively) as determined by BIACORE®-based analysis at 37° C.

monomeric hActRIIA [7] = target: T4, monomeric hActRIIA; assay: SPR (Biacore), 37 C; remark: listed apart in the source
Experimental: as §1

monomeric hActRIIB [8] = target: T2, monomeric hActRIIB; assay: SPR (BIACORE), 37 C, series of concentrations (not printed on the sheet)
Experimental: as §1

dimeric hActRIIB [9] = target: T5, dimeric hActRIIB; assay: as above
Experimental: as §1

monomeric hActRIIB [10] = target: T2, monomeric hActRIIB; assay: SPR (Biacore), 37 C; remark: listed apart in the source
dimeric hActRIIA [11] = target: T3, dimeric hActRIIA; assay: SPR (Biacore), 37 C; remark: listed apart in the source
monomeric hActRIIA [12] = target: T4, monomeric hActRIIA; assay: SPR (Biacore), 37 C; remark: listed apart in the source
dimeric hActRIIB [13] = target: T5, dimeric hActRIIB; assay: SPR (Biacore), 37 C; remark: listed apart in the source

B2: H01 (antibody, human IgG1, kappa, V domains shown)
VH: QVQLQESGPGLVKPSETLSLTCAVSGYSISSGVYWMWIRQPPGKGLEWIGSIVHSGHTYYNPSLKSRVTISVDTSKNQFSLKLSSVTAADTAVYYCARAGKYRWHGMDVWGQGTTVTVSS
VL: DIQMTQSPSSVSASVGDRVTITCRASQGISSWLAWYQQKPGKAPKLLIYAASNLQSGVPSRFSGSGSGTDFTLTISSLQPEDFATYYCQQAPDLPITFGGGTKVEIKR
notes: Human IgG
Kd (monomeric hActRIIB [2]): 11.8 nM
koff (monomeric hActRIIB [2]): 0.023 s⁻¹
kon (monomeric hActRIIB [2]): 1.95e+06 M⁻¹ s⁻¹
binding result (dimeric hActRIIA [3]): no binding
binding result (monomeric hActRIIA [4]): no binding
Kd (dimeric hActRIIB [5]): 0.353 nM
koff (dimeric hActRIIB [5]): 0.000127 s⁻¹
kon (dimeric hActRIIB [5]): 358000 M⁻¹ s⁻¹

B4: F02 (antibody, human IgG1, kappa, V domains shown)
VH: EVQLLESGGGLVQPGGSLRLSCAASGFTFSRYAMSWVRQAPGKGLEWVSGISGSGGATYYADSVKGRFTISRDNSKNTLYLQMNSLRAEDTAVYYCAKDPLSLLLGYFDYWGQGALVTVSS
VL: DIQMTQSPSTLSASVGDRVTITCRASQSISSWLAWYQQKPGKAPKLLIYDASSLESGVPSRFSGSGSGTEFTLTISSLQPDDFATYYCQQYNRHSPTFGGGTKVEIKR
notes: Human IgG; also called F02 variant; F02 optimized antibody
Kd (monomeric hActRIIB [10]): 2.63 nM
koff (monomeric hActRIIB [10]): 0.000313 s⁻¹
kon (monomeric hActRIIB [10]): 119000 M⁻¹ s⁻¹
binding result (dimeric hActRIIA [11]): no binding
binding result (monomeric hActRIIA [12]): no binding
Kd (dimeric hActRIIB [13]): 0.738 nM
koff (dimeric hActRIIB [13]): 3.46e-05 s⁻¹
kon (dimeric hActRIIB [13]): 46900 M⁻¹ s⁻¹

The next lines start with the values.

binding result [1]: binds
B1: I01 (antibody, human IgG4 S228P, kappa, V domains shown)
VH: EVQLLESGGGLVQPGGSLRLSCAASGFTFGSYGMTWVRQAPGKGLEWVSVISGSGGGTYYADSVKGRFTISRDNSKNTLYLQMNSLRAEDTAVYYCAKGPRIVGMDVWGQGTTVTVSS
VL: B2 VL with N53S, A91V, P92F, D93S, L94Y, I96L

Kd (dimeric hActRIIA [6]): 1.48 nM
koff (dimeric hActRIIA [6]): 0.000275 s⁻¹
kon (dimeric hActRIIA [6]): 186000 M⁻¹ s⁻¹
Kd (monomeric hActRIIA [7]): 58 nM
koff (monomeric hActRIIA [7]): 0.0661 s⁻¹
kon (monomeric hActRIIA [7]): 1.14e+06 M⁻¹ s⁻¹
binding result (monomeric hActRIIB [8]): no binding
binding result (dimeric hActRIIB [9]): no binding
B3: G02 (antibody, human IgG1, kappa, V domains shown)
VH: QVQLQESGPGLVKPSQTLSLTCTVSGGSISSGSYYWSWIRQHPGKGLEWIGYIYYSGSTYYNPSLKSRVTISVDTSKNQFSLKLSSVTAADTAVYYCARGLGMYYHVPFDIWGQGTMVTVSS
VL: EIVLTQSPATLSLSPGERATLSCRASQSVSSYLAWYQQKPGQAPRLLIYDASNRATGIPARFSGSGSGTDFTLTISSLEPEDFAVYYCQQYFHWPPTFGGGTKVEIKR
notes: Human IgG
